Values belong to the binder of their own block, whether it stands above or below them.
Tests used:
[1] = target: T1, rHuman HGF R/c-MET/Fc Chimera, CF (R&D Systems Cat#358-MT/CF) (human, UniProt P08581 25-932); experiment: ECL multispot (MSD), antigen spotted, Fab in solution; blank spot 352
T1 construct: Bought reagent; also called HGF R/Fc

[2] = target: T2, rHuman ErbB2/Fc Chimera, CF (R&D Systems Cat#1129-ER) (human, UniProt P04626 23-652); experiment: as above
T2 construct: Bought reagent

[3] = target: T3, rHuman EGF R/Fc Chimera, CF (R&D Systems Cat#344-ER) (human, UniProt P00533 25-645); experiment: as above
T3 construct: Bought reagent

[4] = target: T4, rHuman Notch-1/Fc Chimera, CF (R&D Systems Cat#3647-TK) (human, UniProt P46531 19-526); experiment: as above
T4 construct: Bought reagent

[5] = target: T5, rHuman Erythropoietin R/Fc Chimera, CF (R&D Systems Cat#963-ER) (human, UniProt P19235 25-250); experiment: as above
T5 construct: Bought reagent; also called EPO R; Epo R/Fc
T5 sequence (looked up): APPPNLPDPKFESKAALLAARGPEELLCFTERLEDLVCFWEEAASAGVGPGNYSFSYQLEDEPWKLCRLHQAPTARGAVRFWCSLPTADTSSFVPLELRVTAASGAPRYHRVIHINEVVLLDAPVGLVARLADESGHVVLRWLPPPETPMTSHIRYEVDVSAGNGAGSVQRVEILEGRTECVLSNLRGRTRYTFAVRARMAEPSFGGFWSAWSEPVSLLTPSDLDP

[6] = target: T6, rHuman CD44/Fc Chimera, CF (R&D Systems Cat#3660-CD) (human, UniProt P16070 21-220); experiment: as above
T6 construct: Bought reagent

[7] = target: T7, rHuman P-Cadherin/Fc Chimera, CF (R&D Systems Cat#861-PC) (human, UniProt P22223 108-654); experiment: as above
T7 construct: Bought reagent

[8] = target: T8, Recombinant Human DLL4 (R&D Systems Cat#1506-D4/CF) (human, UniProt Q9NR61 27-524); experiment: as above
T8 construct: Bought recombinant protein; also called delta-like protein 4; rHuman DLL4

[9] = target: T9, rHuman IGF-1 sR (insulin-like growth factor-1 soluble receptor), CF (R&D Systems Cat#391-GR) (human, UniProt P08069 31-932); experiment: as above
T9 construct: Bought soluble receptor

[10] = target: T10, rHuman CD44/Fc Chimera, CF (R&D Systems Cat#3660-CD) (human, UniProt P16070 21-220); experiment: ECL multispot (MSD) assay, antigen spotted on plate; blank spot of this row 302
T10 construct: Bought recombinant protein; Fc part of the bought chimera not given

[11] = target: T11, Recombinant Human DLL4 (R&D Systems Cat#1506-D4/CF) (human, UniProt Q9NR61 27-524); experiment: as above
T11 construct: Bought recombinant protein; also called delta-like protein 4; rHuman DLL4

[12] = target: T12, rHuman P-Cadherin/Fc Chimera, CF (R&D Systems Cat#861-PC) (human, UniProt P22223 108-654); experiment: as above
T12 construct: Bought recombinant protein; Fc part of the bought chimera not given

[13] = target: T13, rHuman ErbB2/Fc Chimera, CF (R&D Systems Cat#1129-ER) (human, UniProt P04626 23-652); experiment: as above
T13 construct: Bought recombinant protein; also called human epidermal growth factor 2 receptor; Fc part of the bought chimera not given

[14] = target: T14, rHuman Erythropoietin R/Fc Chimera, CF (R&D Systems Cat#963-ER) (human, UniProt P19235 25-250); experiment: as above
T14 construct: Bought recombinant protein; also called EPO R; EPO R/Fc; Fc part of the bought chimera not given
T14 sequence (looked up): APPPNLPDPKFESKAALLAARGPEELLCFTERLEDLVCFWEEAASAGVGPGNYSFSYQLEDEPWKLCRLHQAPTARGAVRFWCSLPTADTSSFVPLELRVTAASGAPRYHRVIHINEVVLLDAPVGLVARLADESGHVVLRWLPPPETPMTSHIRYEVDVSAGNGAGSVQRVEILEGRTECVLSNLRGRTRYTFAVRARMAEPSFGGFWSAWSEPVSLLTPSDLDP

[15] = target: T15, rHuman IGF-1 sR, (IGF-1 sR), CF (R&D Systems Cat#391-GR) (human, UniProt P08069 31-932); experiment: as above
T15 construct: Bought recombinant soluble receptor; also called insulin-like growth factor-1 soluble receptor

[16] = target: T16, rHuman Notch-1/Fc Chimera, CF (R&D Systems Cat#3647-TK) (human, UniProt P46531 19-526); experiment: as above
T16 construct: Bought recombinant protein; Fc part of the bought chimera not given

[17] = target: T17, rHuman HGF R/c-MET/Fc Chimera, CF (R&D Systems Cat#358-MT/CF) (human, UniProt P08581 25-932); experiment: as above
T17 construct: Bought recombinant protein; also called HGF R/Fc; hepatocyte growth factor receptor; Fc part of the bought chimera not given

[18] = target: T18, rHuman EGF R/Fc Chimera, CF (R&D Systems Cat#344-ER) (human, UniProt P00533 25-645); experiment: as above
T18 construct: Bought recombinant protein; also called epidermal growth factor receptor; Fc part of the bought chimera not given

[19] = target: T10, rHuman CD44/Fc Chimera, CF (R&D Systems …); experiment: ECL multispot (MSD) assay, antigen spotted on plate; blank spot of this row 184
[20] = target: T11, Recombinant Human DLL4 (R&D Systems …); experiment: as above
[21] = target: T12, rHuman P-Cadherin/Fc Chimera, CF (R&D …); experiment: as above
[22] = target: T13, rHuman ErbB2/Fc Chimera, CF (R&D …); experiment: as above
[23] = target: T14, rHuman Erythropoietin R/Fc Chimera, CF …; experiment: as above
[24] = target: T15, rHuman IGF-1 sR, (IGF-1 sR), CF (R&D …); experiment: as above
[25] = target: T16, rHuman Notch-1/Fc Chimera, CF (R&D …); experiment: as above
[26] = target: T17, rHuman HGF R/c-MET/Fc Chimera, CF (R&D …); experiment: as above
[27] = target: T18, rHuman EGF R/Fc Chimera, CF (R&D …); experiment: as above
[28] = target: T10, rHuman CD44/Fc Chimera, CF (R&D Systems …); experiment: ECL multispot (MSD) assay, antigen spotted on plate; blank spot of this row 351
[29] = target: T11, Recombinant Human DLL4 (R&D Systems …); experiment: as above
[30] = target: T12, rHuman P-Cadherin/Fc Chimera, CF (R&D …); experiment: as above
[31] = target: T13, rHuman ErbB2/Fc Chimera, CF (R&D …); experiment: as above
[32] = target: T14, rHuman Erythropoietin R/Fc Chimera, CF …; experiment: as above
[33] = target: T15, rHuman IGF-1 sR, (IGF-1 sR), CF (R&D …); experiment: as above
[34] = target: T16, rHuman Notch-1/Fc Chimera, CF (R&D …); experiment: as above
[35] = target: T17, rHuman HGF R/c-MET/Fc Chimera, CF (R&D …); experiment: as above
[36] = target: T18, rHuman EGF R/Fc Chimera, CF (R&D …); experiment: as above

ECL signal [1]: 297
ECL signal [2]: 241
ECL signal [3]: 400
ECL signal [4]: 296
ECL signal [5]: 525
ECL signal [6]: 437
ECL signal [7]: 396
ECL signal [8]: 175000
ECL signal [9]: 362
B1: Fab VH1-46_IGHD6-6*01_IGHJ1*01 S102A/S103P/S104F/H111F (APFF) & L6_IGKJ1*01 S30N (Fab, V domains shown)
VH: QVQLVQSGAEVKKPGASVKVSCKASGYTFTSYYMHWVRQAPGQGLEWMGIINPSGGSTSYAQKFQGRVTMTRDTSTSTVYMELSSLRSEDTAVYYCAREEYAPFSAEYFQFWGQGTLVTVSS
VL: EIVLTQSPATLSLSPGERATLSCRASQSVNSYLAWYQQKPGQAPRLLIYDASNRATGIPARFSGSGSGTDFTLTISSLEPEDFAVYYCQQRSNWPPWTFGQGTKVEIKR
notes: Tested as Fab made in E. coli: VH joined to CH1 from Plasmid A (His6 and Flag tags), VL joined to kappa CL from Plasmid C; also called APFF / S30N

ECL signal [10]: 411
ECL signal [11]: 1260
ECL signal [12]: 413
ECL signal [13]: 358
ECL signal [14]: 418
ECL signal [15]: 312
ECL signal [16]: 346
ECL signal [17]: 383
ECL signal [18]: 385
B2: Fab VH1-46_IGHD6-6*01_IGHJ1*01 S102A/S103P/S104F/H111F (APFF) & L6_IGKJ1*01 S30P (Fab, V domains shown)
VH: QVQLVQSGAEVKKPGASVKVSCKASGYTFTSYYMHWVRQAPGQGLEWMGIINPSGGSTSYAQKFQGRVTMTRDTSTSTVYMELSSLRSEDTAVYYCAREEYAPFSAEYFQFWGQGTLVTVSS
VL: EIVLTQSPATLSLSPGERATLSCRASQSVPSYLAWYQQKPGQAPRLLIYDASNRATGIPARFSGSGSGTDFTLTISSLEPEDFAVYYCQQRSNWPPWTFGQGTKVEIKR
notes: Fab made in E. coli: VH cloned into Plasmid A (CH1, His6 and Flag tags), kappa VL into Plasmid C (kappa CL); also called APFF / S30P

ECL signal [19]: 451
ECL signal [20]: 187000
ECL signal [21]: 317
ECL signal [22]: 295
ECL signal [23]: 475
ECL signal [24]: 342
ECL signal [25]: 364
ECL signal [26]: 311
ECL signal [27]: 337
B3: Fab VH1-46_IGHD6-6*01_IGHJ1*01 S102A/S103P/S104F/H111F (APFF) & L6_IGKJ1*01 S30A (Fab, V domains shown)
VH: QVQLVQSGAEVKKPGASVKVSCKASGYTFTSYYMHWVRQAPGQGLEWMGIINPSGGSTSYAQKFQGRVTMTRDTSTSTVYMELSSLRSEDTAVYYCAREEYAPFSAEYFQFWGQGTLVTVSS
VL: EIVLTQSPATLSLSPGERATLSCRASQSVASYLAWYQQKPGQAPRLLIYDASNRATGIPARFSGSGSGTDFTLTISSLEPEDFAVYYCQQRSNWPPWTFGQGTKVEIKR
notes: Fab made in E. coli: VH cloned into Plasmid A (CH1, His6 and Flag tags), kappa VL into Plasmid C (kappa CL); also called APFF / S30A

ECL signal [28]: 343
ECL signal [29]: 178000
ECL signal [30]: 397
ECL signal [31]: 260
ECL signal [32]: 480
ECL signal [33]: 304
ECL signal [34]: 346
ECL signal [35]: 263
ECL signal [36]: 298
B4: Fab VH1-46_IGHD6-6*01_IGHJ1*01 S102A/S103P/S104F/H111F (APFF) & L6_IGKJ1*01 S30G (Fab, V domains shown)
VH: QVQLVQSGAEVKKPGASVKVSCKASGYTFTSYYMHWVRQAPGQGLEWMGIINPSGGSTSYAQKFQGRVTMTRDTSTSTVYMELSSLRSEDTAVYYCAREEYAPFSAEYFQFWGQGTLVTVSS
VL: EIVLTQSPATLSLSPGERATLSCRASQSVGSYLAWYQQKPGQAPRLLIYDASNRATGIPARFSGSGSGTDFTLTISSLEPEDFAVYYCQQRSNWPPWTFGQGTKVEIKR
notes: Fab made in E. coli: VH cloned into Plasmid A (CH1, His6 and Flag tags), kappa VL into Plasmid C (kappa CL); also called APFF / S30G
